Assay results as given in the Immune Epitope Database (IEDB).

Key:
HLA-A*02:01 [1] = experiment: IEDB peptide-MHC binding, purified MHC/competitive/fluorescence; ≥ and ≤ were set here for values at or beyond the usual limits of such assays
HLA-A*69:01 = experiment: IEDB peptide-MHC binding, purified MHC/direct/fluorescence; filed as Kd, often an IC50 or EC50 that approximates it; ≥ and ≤ were set here for values at or beyond the usual limits of such assays
HLA-A*02:01 [2] = experiment: as above
HLA-A*01:01 = experiment: IEDB peptide-MHC binding, purified MHC/competitive/radioactivity; filed as Kd, often an IC50 or EC50 that approximates it; ≥ and ≤ were set here for values at or beyond the usual limits of such assays
HLA-A*24:02 = experiment: as above; conditions: source organism: Dengue virus 2 Jamaica/1409/1983
HLA-B*44:03 = experiment: as above
HLA-B*44:02 = experiment: as above
HLA-A*26:01 = experiment: as above
HLA-A*30:01 = experiment: as above
HLA-A*03:01 [3] = experiment: IEDB peptide-MHC binding, purified MHC/direct/fluorescence; filed as Kd, often an IC50 or EC50 that approximates it; ≥ and ≤ were set here for values at or beyond the usual limits of such assays
HLA-B*15:01 = experiment: as above
HLA-B*07:02 = experiment: as above
HLA-A*11:01 [4] = experiment: IEDB peptide-MHC binding, purified MHC/competitive/radioactivity; filed as Kd, often an IC50 or EC50 that approximates it; ≥ and ≤ were set here for values at or beyond the usual limits of such assays; conditions: source organism: Dengue virus 4 Philippines/H241/1956
HLA-A*03:01 [5] = experiment: as above; conditions: source organism: Dengue virus 4 Philippines/H241/1956
HLA-A*02:01 [6] = experiment: IEDB peptide-MHC binding, purified MHC/competitive/fluorescence; filed as Kd, often an IC50 or EC50 that approximates it; ≥ and ≤ were set here for values at or beyond the usual limits of such assays; conditions: source organism: Bacillus anthracis str. A0488
HLA-A*11:01 [7] = experiment: IEDB peptide-MHC binding, purified MHC/direct/fluorescence; filed as Kd, often an IC50 or EC50 that approximates it; ≥ and ≤ were set here for values at or beyond the usual limits of such assays; conditions: source organism: Homo sapiens
HLA-A*02:03 = experiment: IEDB peptide-MHC binding, purified MHC/competitive/radioactivity; filed as Kd, often an IC50 or EC50 that approximates it; ≥ and ≤ were set here for values at or beyond the usual limits of such assays; conditions: source organism: Vaccinia virus WR
HLA-A*02:06 = experiment: as above; conditions: source organism: Vaccinia virus WR
HLA-A*02:02 = experiment: as above; conditions: source organism: Vaccinia virus WR
[8] = source organism: Giardia lamblia ATCC 50803
[9] = source organism: Dengue virus 3 Martinique/1243/1999
[10] = source organism: Sudan ebolavirus
[11] = source organism: Zaire ebolavirus
[12] = source organism: Dengue virus 1 Brazil/97-11/1997
[13] = source organism: Dengue virus 1 Singapore/S275/1990
[14] = source organism: Dengue virus 2 Thailand/NGS-C/1944
[15] = source organism: Vaccinia virus WR
[16] = source organism: Dengue virus 2 Jamaica/1409/1983
[17] = source organism: Mycobacterium tuberculosis str. Haarlem
[18] = source organism: Dengue virus 4 Philippines/H241/1956
[19] = source organism: Mycobacterium avium 104
[20] = source organism: Salmonella enterica subsp. enterica serovar Typhimurium

For LLWFNYLFG, the IC50 (HLA-A*02:01 [1]; source organism: Variola virus) was ≥ 327000 nM.

In the case of LMQDCAIKA, the Kd (HLA-A*69:01; [8]) is reported as ≥ 20000 nM and the Kd (HLA-A*02:01 [2]; [8]) is reported as 82.1 nM.

In the case of LRFANPLSN, the IC50 (HLA-A*02:01 [1]; source organism: Vaccinia virus) is reported as ≥ 164000 nM.

In the case of LTASLVMLL, the Kd (HLA-A*01:01; source organism: Dengue virus 4 Dominica/814669/1981) is reported as 1900 nM.

LTDGPERVIL showed a Kd (HLA-A*01:01; [9]) of 11800 nM.

LVPKNSPGM showed an IC50 (HLA-A*02:01 [1]; [10]) of 17700 nM.

Work on LYAVATTFV yielded a Kd (HLA-A*24:02) of 66.4 nM.

MDYHKILTA was tested, and the IC50 (HLA-A*02:01 [1]; [11]) was ≥ 114000 nM.

In the case of MENLLWKQI, the Kd (HLA-B*44:03; [9]) is reported as 93.4 nM and the Kd (HLA-B*44:02; [9]) is reported as 6.79 nM.

MTSRMLLNRF was tested, and the Kd (HLA-A*01:01; [12]) was 12300 nM and the Kd (HLA-A*26:01; [12]) was 2180 nM.

For NEGIMAVGI, the Kd (HLA-B*44:03; [13]) was 160 nM and the Kd (HLA-B*44:02; [13]) was 48 nM.

Sequence NEMVLLQMEN has a Kd (HLA-B*44:03; [14]) of 1440 nM and a Kd (HLA-B*44:02; [14]) of 512 nM.

With NLEHGLFPQ the IC50 (HLA-A*02:01 [1]; [11]) was ≥ 304000 nM.

For NVRYVFLYK, the Kd (HLA-A*30:01; [15]) was 9.89 nM.

PECPSASRAW was tested, and the Kd (HLA-B*44:02; [9]) was 1120 nM.

Work on PMVHSTFLI yielded a Kd (HLA-A*02:01 [2]; source organism: Homo sapiens) of 2430 nM.

For QLAKAIITP, the IC50 (HLA-A*02:01 [1]; source organism: Vaccinia virus Copenhagen) was ≥ 96300 nM.

With QVNNLEEIC the IC50 (HLA-A*02:01 [1]; [11]) was ≥ 112000 nM.

Work on RASGSYISG yielded a Kd (HLA-A*30:01; [15]) of 589 nM.

In the case of RDKRSVALA, the Kd (HLA-A*30:01; [12]) is reported as 1990 nM.

In the case of RKKARSTPFN, the Kd (HLA-A*30:01; [16]) is reported as 3820 nM.

RLSNGMPTV was tested, and the Kd (HLA-A*30:01; [15]) was 9270 nM.

Work on RMGAAVTPY yielded a Kd (HLA-A*03:01 [3]; [17]) of 254 nM and a Kd (HLA-B*15:01; [17]) of 98.8 nM.

For RMMASSMSQ, the Kd (HLA-A*03:01 [3]; source organism: Bacillus cereus) was ≥ 20000 nM.

For RNRDQSNAL, the Kd (HLA-B*07:02; source organism: Mycobacterium tuberculosis) was 112 nM.

Sequence RTEAKSALK has a Kd (HLA-A*30:01; [18]) of 476 nM, a Kd (HLA-A*11:01 [4]) of 177 nM and a Kd (HLA-A*03:01 [5]) of 87.6 nM.

RTHFSQPSG showed a Kd (HLA-A*30:01; [15]) of 14.6 nM.

Work on RVSVSAILL yielded a Kd (HLA-A*30:01; [15]) of 14.7 nM.

For SAKNSWLNL, the Kd (HLA-A*30:01; [15]) was 0.574 nM.

For SAVNMTSRM, the Kd (HLA-A*26:01; [12]) was 1220 nM.

With SELFRSRLDSY the Kd (HLA-B*44:02; source organism: Homo sapiens) was 5.4 nM.

In the case of SEMIIPKNF, the Kd (HLA-B*44:03; [16]) is reported as 12.9 nM and the Kd (HLA-B*44:02; [16]) is reported as 10.7 nM.

With SLAALFYSL the Kd (HLA-A*02:01 [6]) was 1.8 nM.

In the case of SLTKLFSYG, the IC50 (HLA-A*02:01 [1]; source organism: Variola virus) is reported as 8920 nM.

In the case of SMVNGVVKL, the Kd (HLA-A*69:01; [13]) is reported as ≥ 20000 nM.

SRNSTHEMYW showed a Kd (HLA-B*44:03; [16]) of 1370 nM and a Kd (HLA-B*44:02; [16]) of 6360 nM.

SSLPPLESD was tested, and the IC50 (HLA-A*02:01 [1]; [11]) was ≥ 170000 nM.

Sequence STEIGLLVG has a Kd (HLA-A*11:01 [7]) of 12400 nM.

Sequence STPQGLVKRF has a Kd (HLA-A*26:01; [18]) of 453 nM.

TTLATISTS showed an IC50 (HLA-A*02:01 [1]; [11]) of 6620 nM.

TVIALFLAH showed a Kd (HLA-A*26:01; [12]) of 12200 nM.

In the case of VEGLSGATW, the Kd (HLA-B*44:03; [12]) is reported as 89.1 nM and the Kd (HLA-B*44:02; [12]) is reported as 30 nM.

Sequence VLFDLDEDD has an IC50 (HLA-A*02:01 [1]; [11]) of 3740 nM.

Sequence VVRLLTKPWD has a Kd (HLA-A*30:01; [16]) of 3780 nM.

For VYLPGRGGV, the Kd (HLA-A*69:01; [19]) was ≥ 20000 nM and the Kd (HLA-A*02:01 [2]; [19]) was ≥ 20000 nM.

With WLKGNISPV the Kd (HLA-A*69:01; [20]) was 536 nM, the Kd (HLA-B*07:02; [20]) was 3110 nM and the Kd (HLA-A*02:01 [2]; [20]) was 20.5 nM. It also gave a Kd (HLA-B*15:01; [20]) of 795 nM.

WVIILFQKA was tested, and the IC50 (HLA-A*02:01 [1]; [10]) was ≥ 341000 nM.

WYAQIQPHWI was tested, and the Kd (HLA-A*24:02) was 49.3 nM.

YLGHSAGFTA was tested, and the Kd (HLA-A*02:03) was 86.1 nM, the Kd (HLA-A*02:06) was 144 nM and the Kd (HLA-A*02:02) was 16.4 nM.

YTEAAAATCA was tested, and the Kd (HLA-A*02:03) was 16100 nM, the Kd (HLA-A*02:06) was 7150 nM and the Kd (HLA-A*02:02) was ≥ 36500 nM.

For YVEHDPRLVA, the Kd (HLA-A*02:03) was 16200 nM, the Kd (HLA-A*02:06) was 11900 nM and the Kd (HLA-A*02:02) was 18600 nM.
